# According to patent US20210292393A1 (published 2021):
# Experiments:
# [1] = molecular target: SARS-CoV-2 full length spike protein, wild type, expressed on the surface of transiently transfected CHO cells (SARS-CoV-2, UniProt P0DTC2 14-1273)
# [2] = molecular target: SARS-CoV-2 spike (S) protein, full length, wild type (SARS-CoV-2, UniProt P0DTC2 14-1208)
Binder,median fluorescence fold over isotype control [1] [fold over isotype],median fluorescence fold over isotype [2] [fold over isotype]
"antibody 420 (antibody, V domains shown) VH: QVQLVESGGGVVQPGRSLRLSCAASGFTFSSYGMHWVRQAPGKGLEWVAVIWYDGSNKYYADSVKGRFTISRDNSKNTLYLQMNSLRAEDTAVYYCAKDGGDYGDVNFDYWGQGTLVTVSS VL: SYELTQPPSVSVSPGQTARITCSGDALPKQYAYWYQQKPGQAPVLVIYKDSERPSGIPERFSGSSSGTTVTLTISGVQAEDEADYYCQSAGSSGNYKVFGGGTKLTVL",1.99,
"anti-SARS-CoV-2 antibody 476 (antibody, V domains shown) VH: QVQLVQSGSELKKPGASVKVSCKASGYTFTSYAMNWVRQAPGQGLEWMGWINTNTGNPTYAQGFTGRFVFSLDTSVSTAYLQISSLKAEDTGVYYCARDHELPNSSSWFGHFEYWGQGTLVTVSS VL: SYELTQPPSVSVSPGQTARITCSGDALPKQYAYWYQQKAGQAPVLVIYKDSERRSGIPERFSGSSSGTTVTLTISGVQAEDEADYYCQSADSSGTSVVFGGGTKLTVL",,902
"anti-SARS-CoV-2 antibody 496 (antibody, V domains shown) VH: QVQLVQSGAEVKKPGASVKVSCKASGYTFTDYYIHWVRQAPGQGLEWMGWINPNSGGTNYAQKFQGRLTMTRDTSISTAYMELSRLRSDDTAVYYCARVYSMFREFIINPYYYYYGLDVWGQGTTVTVSS VL: QSALTQPASVSGSPRQSITISCTGTSSDVGSYNLVSWYQQHPGKAPKLMIYEGSKRPSGVSNRFSGSKSGNTASLAISGLQAEDEANYYCCSYAGSSTLVFGGGTKLTVL",,1090
"antibody 431 (antibody, V domains shown) VH: QVQLVESGGGVVQPGRSLRLSCAASGFTFSSYAMHWVRQAPGKGLEWLAVISYDGSNKYYADSVKGRFTISRDNSKNTLYLQMNSLRAEDTAVYYCARSFRGGYYYGMDVWGQGTTVTVSS VL: DIQLTQSPSFLSASVGDRVTITCRASQGISSYLAWYQQKPGKAPKLLIYAASTLQSGVPSRFSGSGSGTEFTLTISSLQPEDFATYYCQQLNSYPLFTFGPGTKVDIK",10.7,
"antibody 409 (antibody, V domains shown) VH: QVTLRESGPALVKPTQTLTLTCTFSGFSLSTSGMCVSWIRQPPGKALEWLALIDWDDDKYYSTSLKTRLTISKDTSKNQVVLTMTNMDPVDTATYYCARTTYYYVSGRRAEFDPWGQGTLVTVSS VL: NFMLTQPHSVSESPGKTVTISCTGSSGSIASNYVQWYQQRPGSAPTTVIYEDNQRPSGVPDRFSGSIDSSSNSASLTISGLKTEDEADYYCQSYDSSNQGVFGGGTKLTVL",13.8,
"antibody 385 (antibody, V domains shown) VH: QVQLVESGGGVVQPGRSLRLSCAASGFTFSSYAIHWVRQAPGKGLEWVAVISYDGSNKYYADSVKGRFTISRDNSKNTLYLQMNSLRAEDTAVYYCARPRSGSYWGAFDIWGQGTMVTVSS VL: QSVLTQPPSVSGAPGQRVTISCTGSSSNIGARYDVHWYQQLPGTAPKLLIYGNSNRPSGVPDRFSGSKSGTSASLAITGLQAEDEADYYCQSYDSSLRGVFGGGTKLTVL",10.5,
"anti-SARS-CoV-2 antibody 480 (antibody, V domains shown) VH: QVQLVESGGGVVQPGRSLRLSCAASGFTFSSYAMHWVRQAPGKGLEWVAVISYDGNNKYYADSVKGRFTISRDNSKNTLYLQMNSLRAEDTAVYYCVRTNSGSYYAAFDYWGQGTLVTVSS VL: not shown",,690
"anti-SARS-CoV-2 antibody 492 (antibody, V domains shown) VH: QVQLVESGGGVVQPGRSLRLSCAASGFTFSSYGMHWVRQAPGKGLEWVAVISYDGSNKYYADSVKGRFTISRDNSKNTLYLQMNSLRAEDTAVYYCAKDGILWWWWGYFDYWGQGTLVTVSS VL: QSVLTQPPSVSGAPGQRVTISCTGSSSNIGAGFDVHWYQQLPGTAPKLLIYGNSNRPSGVPDRFSGSKSGTSASLAITGLQAEDEADYYCQSYDSSLSVVFGGGTKLTVL",,664
"antibody 423 (antibody, V domains shown) VH: EVQLVESGGGLIQPGGSLRISCAASGFTVRNNHMSWVRQAPGKGLEWVSVFYRGGTTYYADSVKGRFTISRDDSKNTVDLQMNSLRGEDTAVYYCARGLSVAASGYFDCWGQGTLVTVSS VL: DIQMTQSPSSVSASVGDTVTITCRANQGISSWLAWYQQVPGKAPELLIYATSTLQSGVPSRFSGSGSGTDFTLTISSLQPEDFATYYCQQANSFPFTFGPGTKVDIK",14.6,
"anti-SARS-CoV-2 antibody 475 (antibody, V domains shown) VH: QVQLVESGGGVVQPGRSLRLSCAASGFTFSSYAMHWVRQAPGKGLEWVTFISHEGSNKYYADSVKGRFTISRDNSKNTLYLQMNSLRAEDTAVYYCARTFEYSSSSATGDFDYWGQGTLVTVSS VL: QSVLTQPPSVSGAPGQRVTISCTGSSSNIGAGYDVHWYQQLPGTAPKLLIYGNSNRPSGVPDRFSGSKSGTSASLAITGLQAEDEADYYCQSYDSSLSGVVFGGGTKLTVL",,683
"antibody 405 (antibody, V domains shown) VH: not shown VL: QSALTQPRSVSGSPGQSVTISCTGTSSDVGGYNYVSWYQQHPGKAPKLMIYDVSKRPSGVPDRFSGSKSGNTASLTISGLQAEDEADYYCCSYAGSYNVVFGGGTKLTVL",9.7,
"antibody 395 (antibody, V domains shown) VH: QVQLVQSGSELKKPGASVKLSCQASGYTFSNHAMNWVRQAPGQGLEWMGWINTNTGNPTYAQGFTGRFVFSLDTSVGTAYLHISSLKAEDTAFYYCARASARPGVATNLDFWGQGTLVVVSS VL: DIQMTQSPSSLSASVGDRVTITCRTSQNIDNYLNWYQQKPGKAPNLLIYAASRLHSGVPSRFSGSGSGTDFTLIISSLQPEDLATYYCQQSYSNPLTFGPGTKVDIR",7.8,
"antibody 422 (antibody, V domains shown) VH: QVQLVQSGSELKKPGASVKVSCKASGYTFTSYAMNWVRQAPGQGLEWMGWINTNTGNPTYAQGFTGRFVFSLDTSVSTTYLQISSLKAEDTAVYYCARVIGVVTYYYYGMDVWGQGTTVTVSS VL: not shown",19.6,
"anti-SARS-CoV-2 antibody 477 (antibody, V domains shown) VH: QVQLVESGGGVVQPGRSLRLSCAASGITFSSYAMHWVRQAPGKGLEWVAVISYDGSDKYHADSVKGRFAISRDNSKNTLYLQMNSLRAEDTAVYYCAKDKGIAVAGTGWIRPDPEYYFDYWGQGTLVTVSS VL: not shown",,847
"antibody 421 (antibody, V domains shown) VH: QVQLVESGGGVVQPGRSLRLSCAASGFTFSTYAMHWVRQAPGKGLEWVAVISYDGSNKYYADSVKGRFTISRDNSKNTLYLQMNSLRAEDTAVYYCARGYGSGSYYPLYLYWGQGTLVTVSS VL: not shown",9.23,
"anti-SARS-CoV-2 antibody 497 (antibody, V domains shown) VH: QVQLQESGPGLVKPSQTLSLTCTVSGGSINSFGYYWSWIRQHPGKGLEWIGYIYYSGSTDYNPSLNSRVTISLDTSKNQFLLKLTSVTAADTAVYYCAKLTDYYDSSGYSFDYWGQGTLVTVSS VL: DIQMTQSPSSVSASVGDRVTITCRASQDISRWLAWYQQKPGKAPKLLIYAASSLQSGVPSRFSGRGSGTELTLTISSLQPEDFATYFCQQAYSFPFTFGGGTKVEIK",,630
"anti-SARS-CoV-2 antibody 471 (antibody, V domains shown) VH: QVQLVESGGGVVQPGRSLRLSCAASGFTFSSYAMHWVRQAPGKGLEWVAVISYDGSNKYYADSVKGRFTISRDNSKNTLYLQMNSLRAEDTAVYYCAKQYSPYCSGGSCYSGASDYWGQGTLVTVSS VL: not shown",,770
